Bounds are passed on as bounds.

Test [1] deals with recombinant gp120 JR-FL (HIV-1). The test can be described thus: ELISA. Background: An ELISA detects its analyte on a solid surface through an enzyme-linked reagent.
Test [2] addresses recombinant gp120 MSC5007 (HIV-1). Kind of test: ELISA.
The target in test [3] is Env of pseudovirus Bx08.16 (HIV-1).
Test [4] addresses Env of pseudovirus BaL.26 (HIV-1).
The target in test [5] is Env of pseudovirus SF162.LS (HIV-1).
Test [6] has as its target Env of pseudovirus HXB2.DG (HIV-1) (UniProt P04578).
Test [7] concerns the target Env of pseudovirus SS1196.1 (HIV-1).
Test [8] deals with Env of pseudovirus MW965.26 (HIV-1).
Test [9] deals with Env of pseudovirus 6535.3 (HIV-1).
The target of test [10] is Env of pseudovirus DJ263.8 (HIV-1).
Test [11] deals with recombinant gp120 ZM53M (HIV-1). Kind of test: ELISA.
For test [12], the target named is fusion protein V1V2_(Case-A2)-gp70 (HIV-1). Kind of test: ELISA.
Test [13] concerns the target recombinant gp120 REJO4541 (HIV-1). Kind of test: ELISA.

On to human anti-V2 monoclonal antibody 697, for which the O.D. (ELISA, mAb at 10 μg/ml) in test [1] was determined as 4 O.D.
For human anti-V2 monoclonal antibody 830A, the O.D. (ELISA, mAb at 10 μg/ml) in [2] came out at 4 O.D. Moreover, the IC50 of neutralisation of pseudovirus Bx08.16 (TZM-bl cell assay) in test [3] was more than 50 µg/mL. Also, the IC50 of neutralisation of pseudovirus BaL.26 (TZM-bl cell assay) in [4] is 36.1 µg/mL. Moreover, in test [5], the IC50 of neutralisation of pseudovirus SF162.LS (TZM-bl cell assay) is 6.2 µg/mL. The same molecule yielded an IC50 of neutralisation of pseudovirus HXB2.DG (TZM-bl cell assay) in [6] of more than 50 µg/mL. Moreover, the IC50 of neutralisation of pseudovirus SS1196.1 (TZM-bl cell assay) in [7] was more than 50 µg/mL. The molecule also came in with an IC50 of neutralisation of pseudovirus MW965.26 (TZM-bl cell assay) in test [8] of less than 0.4 µg/mL. In test [9], this molecule returned an IC50 of neutralisation of pseudovirus 6535.3 (TZM-bl cell assay) of more than 50 µg/mL.
As for human anti-V2 monoclonal antibody 1357, in test [1], the O.D. (ELISA, mAb at 10 μg/ml) came out at 4 O.D. The IC50 of neutralisation of pseudovirus DJ263.8 (TZM-bl cell assay) in [10] was found to be 29.2 µg/mL. For the same molecule, in test [5], the IC50 of neutralisation of pseudovirus SF162.LS (TZM-bl cell assay) is 33.5 µg/mL. In [6], this molecule came in with an IC50 of neutralisation of pseudovirus HXB2.DG (TZM-bl cell assay) of 36.9 µg/mL. Also, in test [8], the IC50 of neutralisation of pseudovirus MW965.26 (TZM-bl cell assay) worked out at 0.8 µg/mL.
Consider human anti-V2 monoclonal antibody 1361, for which, in test [11], the O.D. (ELISA, mAb at 10 μg/ml) was 4 O.D. The IC50 of neutralisation of pseudovirus DJ263.8 (TZM-bl cell assay) in [10] came out at 11.8 µg/mL. For the same molecule, in [5], the IC50 of neutralisation of pseudovirus SF162.LS (TZM-bl cell assay) was 5.4 µg/mL. This molecule also had an IC50 of neutralisation of pseudovirus HXB2.DG (TZM-bl cell assay) in test [6] of 18.6 µg/mL. The molecule further yielded an IC50 of neutralisation of pseudovirus SS1196.1 (TZM-bl cell assay) in test [7] of 23.8 µg/mL. The molecule further returned an IC50 of neutralisation of pseudovirus MW965.26 (TZM-bl cell assay) in test [8] of less than 0.4 µg/mL.
For the molecule human anti-V2 monoclonal antibody 1393A, the O.D. (ELISA, mAb at 10 μg/ml) in test [1] was 4 O.D. The molecule also yielded an IC50 of neutralisation of pseudovirus DJ263.8 (TZM-bl cell assay) in test [10] of 11.1 µg/mL. Moreover, the IC50 of neutralisation of pseudovirus SF162.LS (TZM-bl cell assay) in test [5] came out at 12.5 µg/mL. Besides, in test [6], the IC50 of neutralisation of pseudovirus HXB2.DG (TZM-bl cell assay) was found to be 19.8 µg/mL. The same molecule had an IC50 of neutralisation of pseudovirus SS1196.1 (TZM-bl cell assay) in test [7] of 88.7 µg/mL. In addition, in test [8], the IC50 of neutralisation of pseudovirus MW965.26 (TZM-bl cell assay) came to 0.8 µg/mL.
human anti-V2 monoclonal antibody 2158 gave an IC50 of neutralisation of pseudovirus SF162.LS (TZM-bl cell assay) in [5] of 6.4 µg/mL. The molecule also came in with an IC50 of neutralisation of pseudovirus HXB2.DG (TZM-bl cell assay) in [6] of 17.8 µg/mL. Moreover, the IC50 of neutralisation of pseudovirus SS1196.1 (TZM-bl cell assay) in test [7] was found to be 27.6 µg/mL. The IC50 of neutralisation of pseudovirus MW965.26 (TZM-bl cell assay) in [8] was 0.8 µg/mL.
human anti-V2 monoclonal antibody 2297: the percent inhibition of the binding of biotinylated 697 to V1V2-gp70 in test [12] turned out to be 47%. Also, the O.D. (ELISA, mAb at 10 μg/ml) in [13] worked out at 4 O.D.

B1: human anti-V2 monoclonal antibody 697 (antibody, V domains shown)
VH: QVQLVQSGAEVKKPGSSVKVSCKASGGNFNTYTISWVRQAPGQGLEWMGRIIPIFGIVNPAQKFPGRVTINVDKSTNTAYMELSSLRSEDTAVYYCATSGVGLHFGYFDYWGQGTQVTVSS
VL: QSVLTQPPSVSGAPGQRVTISCTGSSSNIGAHYDVHWYQQLPGTAPKLLIYGNSNRPSGVPDRFSGSKSGTSASLAITGLQAEDEADYYCQSYDSSLSGYVFGTGTKVTVL
Regarding B1, the IC50 of neutralisation of pseudovirus Bx08.16 (TZM-bl cell assay) in test [3] worked out at 11.2 µg/mL. The molecule also registered an IC50 of neutralisation of pseudovirus BaL.26 (TZM-bl cell assay) in test [4] of 20.2 µg/mL. Besides, the IC50 of neutralisation of pseudovirus DJ263.8 (TZM-bl cell assay) in test [10] is 38.6 µg/mL. Further, the IC50 of neutralisation of pseudovirus SF162.LS (TZM-bl cell assay) in test [5] stood at 19.9 µg/mL. The molecule also registered an IC50 of neutralisation of pseudovirus SS1196.1 (TZM-bl cell assay) in [7] of 16.8 µg/mL. Also, the IC50 of neutralisation of pseudovirus MW965.26 (TZM-bl cell assay) in test [8] was 1.8 µg/mL.

Source of the values: article PMC3572902.
